Here are results for 32 sequences from a protein production outcome set (Wang et al. 2014).

This series in a line: label from the status in PepcDB records.
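Further: failed if final PepcDB status was selected cloned or expressed and not failed if soluble or beyond.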

As to “DQDTLVQRAEHIPAGKRTPMCAHCNQVIRGPFLVALGKSWHPEEFNCAHCKNTMAYIGFVEEKGALYCELCYEKFFA”, the protein production result is recorded as “not failed”.

Regarding “DQHRPATLEALLAGVSLLLPMLDAIPNAAIFIKDSAARYALANNTLVQRCGLKRLQPLLGKTSAEVFPAQFGPGYTEQDRRVLKEGLVLEDQLELHLYGSREPGWCLTHKRPLYNPAGEIIGLVGISVDLQSAADSHP”, the protein production result is on record as “failed”.

Turning to “DSFKTKSGKELTITFIKHGSLMLTYDNHSIQVDPVSEYADYTTFPKADIILITHEHGDHLDPKAIQAVEKSDTEIIANENSQKKLGKGKVLKNGDTDTSISYMKIEAVPAYNTTPGRDKYHPRHRDNGYILTFDGLRVYIAGDTEDIPEMKDLKDIDIAFLPVNQPYTMTVSQAAKAARMFSPKILYPYHYGDTKIGELKDALKDSGIDVRIRELQ”, the protein production result is “not failed”. Consider “DSLKAEVNTLFARFDEQPLAAASIAQVHTAALFDGREVIVKVTRPNIRTQILQDFEIISWLGQSLESRLEAARALHLSEIIQDYRQIILNELDLTLEADNTRRMRHYFTGSSMMYVPEVY”, for which the protein production entry was “not failed”. Take “DTVANASGPLMVEIVKTPGSALGISLTTTSLRNKSVITIDRIKPASVVDRSGALHPGDHILSIDGTSMEHCSLLEATKLLASISEKVRLEILPVPQSQRPLRPS”: the protein production entry is recorded as “not failed”. For “DVKEFCKKSLRVRKRQLKDLLYSLEDDNKELFERVIKLFENFKNRDEIFYEKISEEIVWTVKKNILFVNIEEGILKPQSKLDLLAIREILDEIKT”, the protein production result is recorded as “failed”. Turning to “DVTERRRAREALQESEARMKGIASNVPGMVFRLERPRAGAFSDFAYISEGSEALVGYSARELIESGRGIRGLVHPDDRERYWSSQMAALDENRDWHWQGRILTRQGELRWADIKASARCFEDGRAVWDGVVWD”, the protein production result is “failed”.

Regarding “DVVVVGSGVAGPIVARDVAKAGFSVLLVDKKPAIGTPKQCAEGINVNVFKEFDIPYDKRFINREIYGARIYSPSGYTAELRYDKVSGVILERKVFDKMLAYYAAKAGADVWARTEVIDLLRKEGKIMGVKAKHEGELVEIEAKIIVAADGVESTVARLAGINTYAPPHEFDSAYEYEMIIEGYDPDLIHLWFGNEIAPRGYVWVFPKDEDRANVGIGINSDNEKTAKYYLDKWLKENNIPTKKILEINVGLVPVGGFVRELVKENVAVVGDAARQVNPVHGGGMYEAMKAANILAKWIVKALEEENLELLKNYTKEWWEVEGPKMERLLKLRRAMEKLTDEDIDVFVQLLGGTDLEKLAGGNYFEVVKALMKHPKVLMSKRRLEILKALL”, the protein production entry is reported as “failed”. With “EDYSCFIFRHFPQVQIHPHAQRAAQAAEAAAAQGQFWLMNDTLFDHQQRLENGYLVEYANDLGLDIPQFLKELAKQVHVDRIKKDIEGGLQSGVMAVPALFVNGILYRDCWNIKQLIATIIASSY” the entry was “failed”; with “EEKVVAEQQADGTWLMDGWISIRKASNLLEHDLVDEAERYSTLGGYLLWQFGYIPAAGEQITVDGLIFEIVSVNKHNIGKVRVHRTQ”, “not failed”. Take “EEKYVTVQPYTSQSKDEIGFEKGVTVEVIRKNLEGWWYIRYLGKEGWAPASYLKKAKD”: the protein production result was “not failed”. The entry for “EFTTMLGPAVLGLSLWALLHPGTGAPLCLSQQLRMKGDYVLGGLFPLGEAEEAGLRSRTRPSSPVCTRFSSNGLLWALAMKMAVEEINNKSDLLPGLRLGYDLFDTCSEPVVAMKPSLMFLAKAGSRDIAAYCNYTQYQPRVLAVIGPHSSELAMVTGKFFSFFLMPQVSYGASMELLSARETFPSFFRTVPSDRVQLTAAAELLQEFGWNWVAALGSDDEYGRQGLSIFSALAAARGICIAHEGLVPLPRADDSRLGKVQDVLHQVNQSSVQVVLLFASVHAAHALFNYSISSRLSPKVWVASEAWLTSDLVMGLPGMAQMGTVLGFLQRGAQLHEFPQYVKTHLALATDPAFCSALGEREQGLEEDVVGQRCPQCDCITLQNVSAGLNHHQTFSVYAAVYSVAQALHNTLQCNASGCPAQDPVKPWQLLENMYNLTFHVGGLPLRFDSSGNVDMEYDLKLWVWQGSVPRLHDVGRFNGSLRTERLKIRWHTSDNQKPVSRCSRQCQEGQVRRVKGFHSCCYDCVDCEAGSYRQNPDDIACTFCGQDEWSPERSTRCFRRRSRFLAWGEPAVLLLLLLLSLALGLVLAALGLFVHHRDSPLVQASGGPLACFGLVCLGLVCLSVLLFPGQPSPARCLAQQPLSHLPLTGCLSTLFLQAAEIFVESELPLSWADRLSGCLRGPWAWLVVLLAMLVEVALCTWYLVAFPPEVVTDWHMLPTEALVHCRTRSWVSFGLAHATNATLAFLCFLGTFLVRSQPGRYNRARGLTFAMLAYFITWVSFVPLLANVQVVLRPAVQMGALLLCVLGILAAFHLPRCYLLMRQPGLNTPEFFLGGGPGDAQGQNDGNTGNQGKHE” is “failed”; for “EIESRELADIPVLHAYPVGQKDTPLPCVIFYHGFTSSSLVYSYFAVALAQAGLRVIMPDAPDHGSRFSGDAARRLNQFWQILLQSMQEFTTLRAAIAEENWLRDDRLAVGGASMGAMTALGITARHPTIKCTASMMGSGYFTSLARSLFPPLIPETAAQQNEFNNIVAPLAEWEATNHLEQLGDRPLLLWHGLDDDVVPADESLRLQQALSETGRDKLLTCSWQPGVRHRITPEALDAAVTFFLQHL” it is “failed”; for “EKAVLIGEKEADITFVTWGSQKGPILDVIEDLKEEGISANLLYLKMFSPFPTEFVKNVLSSANLVIDVESNYTAQAAQMIKLYTGIDIKNKILKYNGRHMTEDEILKSAKEILNKESLMVVLEDGS” it is “failed”. As to “EKEDSKTRGEKIKSDFFELLSNHHLDSQSRWSKVKDKVESDPRYKAVDSSSMREDLFKQYIEKIAKNLDS”, the protein production result was “not failed”. Consider “EKGDWAQFGRYAEANKTVKVPSNVVFMGNSITDGWWPADSTFFIRNNFVDRGISGQTTSEMLVRFRQDVINLKPKAVVILAGINDIAHNNGVIALENVFGNLVSMAELAKANHIKVIFCSVLPAYDFPWRPGMQPADKVIQLNKWIKEYADKNGLTYVDYHSAMKDERNGLPANLSKDGVHPTLEGYKIMEKIVLEAIHKTVK”, for which the protein production result is “not failed”. With “EKGLEIAQERKARDEGWGDSIATMEMILKNAQGESSTRLMRLKSLEVEGDGDKGLTIFDQPRDVTGTAFLNHSHTIGADDQWLYLPALKRVKRISSRNKSGPFMGSEFAYEDLSSFEIEKYRFNHLKDEKFNGQDVFVLEQIPTDKNSGYTKQVVWLDKAHYRPLKVEFYDRKGALLKTLTFANYKQYLDKYWRAHTMAMTNHQTGKSTELNTSDLRFQTGLEENDFNKNVLKR”, the protein production entry is reported as “not failed”. As for “ELALWSPEVKIVELVKDCKGLGFSILDYQDPLDPTRSVIVIRSLVADGVAERSGGLLPGDRLVSVNEYCLDNTSLAEAVEILKAVPPGLVHLGIC”, the protein production result is listed as “not failed”.

Regarding “EMEEREIINNVFEFGDMQAKNAMVQRIDMVAIDMEDSYDEIIQVFKTEKLSRMPVYEETIDDIVGILNIKDIIFLSDEEIESFDIKNYMREPFFTYEFKKITQLLEEMKLEKSQMAIVVDEYGGTSGLLTIEDLVEVIVGDIE”, the protein production entry is on record as “not failed”. The entry for “EQAEAQLAELDLLASMFPGENELIVNDQLAVAELKDCIEKKTMEGRSSKVYFTINMNLDVSDEKMAMFSLACILPFKYPAVLPEITVRSVLLSRSQQTQLNTDLTAFLQKHCHGDVCILNATEWVREHASGYVSRDTSS” is “not failed”; for “EQLPVLQTVPFAGSAEPVSLTRESVERSVGEANMQEQRKRVHAMLRDYELQLRINSDASQQDAHLTPDSE” it is “not failed”; for “EQLTLRHGTRADISEIAPLLARNAADPCELVDLEHALDLLTHESSHFLAVVRNARGKIIAAMQLTIVPEFSRGGALHLHIEGPFIIPEYRTTDLDKKLRAWAVEHGRARGVKVEEVVG” it is “failed”. As for “EQVFAAECILSKRLRKGKLEYLVKWRGWSSKHNSWEPEENILDPRLLLAFQKKEHEKEVQN”, the protein production entry was “not failed”. For “ESELACVIALQDITLRVQETERLEKMLEHLPVCMVIMNQNDEVEQINQTGIELLGFERDEIVGNPVDLFIPQEQVESHKALLKKFFQEETVIDTRSLERDFKVKHKSGKLIEIQAVYTPVHFHN”, the protein production result was “failed”. The entry for “EVQKPLHEQLWYHGAIPRAEVAELLVHSGDFLVRESQGKQEYVLSVLWDGLPRHFIIQSLDNLYRLEGEGFPSIPLLIDHLLSTQQPLTKKSGVVLHRAVP” is “not failed”; for “EVVVTALGIKREKKMLGYAVQELKSDELNKTGDPSVTSALQGKVAGLQMNTSATGLGGSTKITIRGNSSLTDNNQPLWIVDGVPFSDTSTSSASRYDGVDRGSASMDINPDDIESISVLKGPNAAALYGSRAGNGVILITTKKGSK” it is “failed”. As for “FATTDDVILLWRQLSVDEIKRAEALLETVSDTLRLEASKVGKNLDEMILETPYFATVLKSVTVDIVARTLMTATQGEPMSQESQSALGYTWSGTYLVPGGGLFIKDSELKRLGLKKQRYGGI”, the protein production result is “failed”. Take “FEELLNALHDGVYITDGQGQTLKVNQAYERLTGLNGAELLGRPMQELVKSGVISQSASLRVLQDGRPVSVMQSLSHGKKLLVSATPILAADQSIRYVVSTVRDMTELLRIKRERDELQQL”: the protein production entry was “failed”. The entry for “FFSNAEVAERLAYPQLIEALRIGLAKPCSAPLRNCHALPAQASLLQMPVWQAGAGIGVKLVTVFPGNGARGLPAVAAVFALFDGEDGRPLALLEASELTARRTACSSALAADYLARDDARRLLVVGCGTLAAHMVRAHACVRDYRHIDIWGRDPAKAAALAARLREEGYPARAADGLRAAVEAADCVSCVTTSREALVRGAWLKPGVHLDLVGAFLPSMRETDVLAVARARVVVDTRAGALEEAGDLLQAIAEGAIGREAISTELRDLLSGAGRRGDPGEITLFKSVGYALEDLVAARRVV” is “failed”. Turning to “FKAVTYVADPVDVTYQSLNVSVPVEIDGKAVDASHAPIVFSNAVGGYMPSSTAGNTGIGQGVNAKLSLASGFVVVDPGARGRTLVDTAGVYYGVAPAAIVDLKAAIRYLRHNKGRVPGDTDRIVATGVSAGGALTSLLGASGDSDRYAPYLQELGAADASDAVFAAAPYCPITDLEHADMAYEWNWGTNPLPTGAQVDQTLSKELRSGFAEYQASLNLRGKNGFGRITARNYDAYMVKTHLEPSATRYLGALPDADRAAYLTANPWITWSGGRASFGWGDFLTHVGARKKNVPSFDTFTLAAPENNLFGVATTKARHFTQWSLRKATGDDGARLDADLPEKIDLMNPMYFIEHQNPGRSRHWFIRVGTKDSDTSLTVVGNLTAGLENLGDDVDTYMYWDGGHGANQDAPDFITWIRSVSG”, the protein production result is “failed”. With “FLSTRDNVDELRKIENKSSFVSADNMPEYVKGAFISMEDERFYNHHGFDLKGTTRALFSTISDRDVQGGSTITQQVVKNYFYDNDRSFTRKVKELFVAHRVEKQYNKNEILSFYLNNIYFGDNQYTLEGAANHYFGTTVNKNSTTMSHITVLQSAILASKVNAPSVYNINN”, the protein production entry was “failed”. For “FYTPKAVVQLVVELIDPRPGHSVYDPTCGSGGMLVESAHHVSGLPDGTLMGKPNVLLYGQEKNLGTWAIAKLNLYLHNMHASIERGDTLVEPKHLDGDYLKTFDRVIANPPFSAKSWWTPLELSNENEQENGKKVKAPNYKQVSDPYGRLVYGVPPRGYADLAFAQHMLASLKADGRMGVILPHGVLFRSGEEGKIREGLLFGTGAASGNQPGDVIEAIVGLPSALFYNTGIPACVLILNKQKPSALKDKVIIIDGSRDYLEGKAQNSLHAEDILRIVSTH”, the protein production entry is listed as “failed”.
